Source: patent publication US7781394B2, “Methods for identifying anti-tumor and/or anti-angiogenesis drugs with deoxynucleoside 5′-monophosphate N-glycosidase as the target” (Institut Pasteur, priority 2006, dated 2010)

Substrate: O=P(O)(O)OC[C@H]1O[C@@H](n2cnc3c(O)ncnc32)C[C@@H]1O
Experiment: Kinetic parameters of His-RCL (wild-type) with dNMP substrates, initial velocity measurements
Type: biochemical, rat
Settings: purine deoxynucleotides; 37.0 °C
Description: The enzyme activity was determined either spectrophotometrically by following one of the reaction products, hypoxanthine or deoxyribose 5-phosphate, or by HPLC separation and UV detection of the released nucleobase and the remaining substrate. a) dIMP was used as a substrate and the hypoxanthine released oxidized to uric acid by xanthine oxidase. […] The decrease in absorbance at 340 nm was followed on a Amersham Biosciences Ultrospec 3100 pro spectrophotometer, using a millimolar absorbance coefficient of 6.22. […] Initial velocity experiments were carried out at variable concentrations of the six deoxynucleoside 5'-monophosphate: dAMP, dCMP, dGMP, dIMP, dTMP and dUMP (Table 1).

B1: His-RCL (deoxynucleoside 5′-monophosphate N-glycosidase) (Rattus norvegicus) (protein)
chain: MAASGEQAPCSVYFCGSIRGGREDQALYARIVSRLRRYGKVLTEHVADAELEPLGEEAAGGDQFIHEQDLNWLQQADVVVAEVTQPSLGVGYELGRAVALGKPILCLFRPQSGRVLSAMIRGAADGSRFQVWDYAEGEVETMLDRYFEAYLPQKTASSSHPSA
notes: made in house; host or cells: E. coli Bli5 (BL21 (DE3) pDIA17), plasmid pET28aRcl
Work on B1 yielded a Km of 450 µM, a kcat of 0.0066 s⁻¹ and a kcat/Km of 14.7 M⁻¹ s⁻¹.
